Measurements: publication PMC12212125, “Constitutively active Arabidopsis cryptochrome two alleles identified using yeast selection and deep mutational scanning” (The Journal of Biological Chemistry, 2025)

B1: Arabidopsis cryptochrome 2, truncated CRY2(535) (residues 1-535), wild type [Arabidopsis thaliana] / itself (parent)
chain: MKMDKKTIVWFRRDLRIEDNPALAAAAHEGSVFPVFIWCPEEEGQFYPGRASRWWMKQSLAHLSQSLKALGSDLTLIKTHNTISAILDCIRVTGATKVVFNHLYDPVSLVRDHTVKEKLVERGISVQSYNGDLLYEPWEIYCEKGKPFTSFNSYWKKCLDMSIESVMLPPPWRLMPITAAAEAIWACSIEELGLENEAEKPSNALLTRAWSPGWSNADKLLNEFIEKQLIDYAKNSKKVVGNSTSLLSPYLHFGEISVRHVFQCARMKQIIWARDKNSEGEESADLFLRGIGLREYSRYICFNFPFTHEQSLLSHLRFFPWDADVDKFKAWRQGRTGYPLVDAGMRELWATGWMHNRIRVIVSSFAVKFLLLPWKWGMKYFWDTLLDADLECDILGWQYISGSIPDGHELDRLDNPALQGAKYDPEGEYIRQWLPELARLPTEWIHHPWDAPLTVLKASGVELGTNYAKPIVDIDTARELLAKAISRTREAQIMIGAAPDEIVADSFEALGANTIKEPGLCPSVSSNDQQVPSAV

Variants of: B1
Experiment: yeast two-hybrid, quantitative GalUAS-lacZ (beta-galactosidase) reporter assay
Conditions: with itself; dark; strain AH109; parent: 25; read off a plot

| Variant | response [Miller units] |
| --- | --- |
| chain 1 D393A | 160 |
| chain 1 D393S | 170 |
| chain 1 M378R | 210 |
| chain 1 W374A | 170 |

Same assay, conditions: with itself; light; strain AH109; parent: 220; read off a plot

| Variant | response [Miller units] |
| --- | --- |
| chain 1 D393A | 180 |
| chain 1 D393S | 160 |
| chain 1 M378R | 240 |
| chain 1 W374A | 180 |

Variants of: B1
Experiment: yeast two-hybrid growth selection (MaV203; Gal4BD-CRY2(1-535) library x Gal4AD-CIB1; URA3 reporter on SC -Trp/-Leu/-Ura) in the dark, deep sequencing before and after selection, Enrich2 scoring; three independent screens (one at 48 h, two …)
Conditions: with CIB1 (CRYPTOCHROME-INTERACTING BASIC-HELIX-LOOP-HELIX 1), dark (no blue light), screens 1, 3 and 4, Svar > 0 = enriched under dark selection for CRY2-CIB1 two-hybrid growth (URA3 reporter), < 0 = depleted, relative to wild type (whose scores are 0). 'The Enrich2 software calculates, parent: 0, not an affinity, scale: Enrich2 score, numbering: uniprot, sequence starts at 1

| Variant | enrichment |
| --- | --- |
| W321C | -0.0126 |
| W321G | -0.157 |
| W321L | -1.18 |
| W321R | 0.946 |
| D322A | -0.241 |
| D322E | 0.472 |
| D322G | 0.357 |
| D322N | 0.239 |
| D322V | 0.286 |
| D322Y | -0.959 |
| A323D | 0.677 |
| A323S | 0.117 |
| A323T | -0.65 |
| A323V | -0.61 |
| D324A | 0.0228 |
| D324E | 0.371 |
| D324G | -0.17 |
| D324N | -0.413 |
| D324V | 2.44 |
| D324Y | 0.863 |
| V325A | -0.239 |
| V325D | -1.89 |
| V325F | -0.532 |
| V325G | 0.408 |
| V325I | -0.344 |
| D326A | -0.893 |

| Variant | enrichment |
| --- | --- |
| D326E | -1.28 |
| D326G | 0.327 |
| D326N | -0.256 |
| D326V | -0.872 |
| D326Y | -0.976 |
| K327E | -1.63 |
| K327M | -0.448 |
| K327N | -0.0863 |
| K327Q | 0.397 |
| K327R | 0.118 |
| K327T | -0.117 |
| F328C | -1.53 |
| F328I | -1.51 |
| F328L | -0.872 |
| F328P | 0.453 |
| F328S | -1.95 |
| F328V | -2.43 |
| F328Y | -0.296 |
| K329E | -0.264 |
| K329M | 0.675 |
| K329N | 0.546 |
| K329R | 0.366 |
| K329T | 0.41 |
| A330D | -0.577 |
| A330G | -2.23 |
| A330P | -1.93 |

| Variant | enrichment |
| --- | --- |
| A330S | -0.0962 |
| A330T | -0.56 |
| A330V | -1.26 |
| W331C | -0.871 |
| W331G | -1.69 |
| W331L | 1 |
| W331R | -1.72 |
| R332G | -0.0201 |
| R332I | -0.681 |
| R332K | -1.23 |
| R332S | 0.5 |
| Q333H | 0.227 |
| Q333K | -0.851 |
| Q333L | -0.0861 |
| Q333P | -1.44 |
| Q333R | 1.48 |
| G334A | -1.45 |
| G334C | 0.0705 |
| G334S | -0.925 |
| G334V | -0.578 |
| R335G | -1.19 |
| R335K | 0.204 |
| R335S | -0.537 |
| R335T | 1.74 |
